Assays:
HeLa Kyoto [1] = assay: melting temperature (median over replicates), in situ; higher = more thermally stable
HeLa Kyoto [2] = assay: solubility in G1/S (NP-40 vs SDS abundance) (log2 ratio); higher = more soluble; conditions: cell cycle stage: G1/S
HeLa Kyoto [3] = assay: solubility change mitosis vs G1/S (difference of NP-40 vs SDS log2 ratios) (log2 ratio difference); higher = more soluble in mitosis
HeLa Kyoto [4] = assay: thermal stability score vs G1/S (z-score of summed log2 fold changes over temperatures); higher = more thermally stable than in G1/S
[5] = cell cycle stage: early G1 (4.5 h after nocodazole release)
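Wherever melting temperature (median over replicates), in situ is given: HeLa Kyoto cells synchronized by double thymidine or nocodazole block, proteins quantified by TMT10plex mass spectrometry, three independent biological replicates.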
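Wherever solubility change mitosis vs G1/S (difference of NP-40 vs SDS log2 ratios) is given: synchronized HeLa Kyoto cells (double thymidine block for G1/S, nocodazole release for mitosis), protein amounts in NP-40 versus SDS lysates quantified by mass spectrometry, three biological replicates.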
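Wherever solubility in G1/S (NP-40 vs SDS abundance) is given: HeLa Kyoto cells arrested at G1/S by double thymidine block, proteins quantified by TMT10plex mass spectrometry in mild NP-40 versus SDS extracts, three biological replicates.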
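Wherever thermal stability score vs G1/S (z-score of summed log2 fold changes over temperatures) is given: synchronized HeLa Kyoto cells, proteins quantified by TMT10plex mass spectrometry, three biological replicates, mitosis taken 0.5 h after nocodazole release, G1/S directly after double thymidine block.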

Sequence of DHX9 (chain, as listed by the source): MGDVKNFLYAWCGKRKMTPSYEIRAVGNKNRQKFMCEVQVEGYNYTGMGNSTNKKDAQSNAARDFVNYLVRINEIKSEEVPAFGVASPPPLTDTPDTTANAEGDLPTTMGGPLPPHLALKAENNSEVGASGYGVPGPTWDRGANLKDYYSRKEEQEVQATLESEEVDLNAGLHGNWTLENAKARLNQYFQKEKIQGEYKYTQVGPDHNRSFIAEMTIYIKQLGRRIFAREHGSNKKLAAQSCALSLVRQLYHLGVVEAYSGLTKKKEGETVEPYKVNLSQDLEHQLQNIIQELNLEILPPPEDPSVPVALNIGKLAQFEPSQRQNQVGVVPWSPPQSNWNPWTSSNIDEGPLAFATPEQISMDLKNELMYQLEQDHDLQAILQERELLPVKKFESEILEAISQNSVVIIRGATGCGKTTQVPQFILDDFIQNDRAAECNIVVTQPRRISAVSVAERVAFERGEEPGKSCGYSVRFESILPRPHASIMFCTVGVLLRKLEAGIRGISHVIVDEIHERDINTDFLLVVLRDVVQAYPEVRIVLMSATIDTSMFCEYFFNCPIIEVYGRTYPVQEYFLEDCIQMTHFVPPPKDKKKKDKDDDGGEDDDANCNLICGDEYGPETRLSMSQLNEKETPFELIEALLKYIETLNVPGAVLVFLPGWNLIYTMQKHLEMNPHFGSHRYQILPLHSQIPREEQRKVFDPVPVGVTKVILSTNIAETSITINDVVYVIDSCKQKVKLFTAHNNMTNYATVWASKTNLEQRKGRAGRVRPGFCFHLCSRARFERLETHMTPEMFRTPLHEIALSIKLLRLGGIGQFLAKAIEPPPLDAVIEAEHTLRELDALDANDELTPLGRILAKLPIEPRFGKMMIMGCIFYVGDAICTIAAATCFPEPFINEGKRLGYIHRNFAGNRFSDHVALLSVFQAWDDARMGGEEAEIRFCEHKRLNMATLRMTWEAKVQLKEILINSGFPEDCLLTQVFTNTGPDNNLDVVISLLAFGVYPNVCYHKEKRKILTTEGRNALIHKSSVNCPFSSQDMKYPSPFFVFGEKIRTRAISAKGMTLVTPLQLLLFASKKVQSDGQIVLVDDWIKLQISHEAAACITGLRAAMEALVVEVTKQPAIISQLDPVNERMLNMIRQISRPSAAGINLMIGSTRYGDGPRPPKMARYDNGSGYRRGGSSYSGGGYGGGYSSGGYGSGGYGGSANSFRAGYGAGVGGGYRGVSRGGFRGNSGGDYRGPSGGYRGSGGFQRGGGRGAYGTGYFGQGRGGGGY

Row | Substance | melting temperature (HeLa Kyoto [1]; cell cycle stage: G1/S) [°C] | melting temperature (HeLa Kyoto [1]; cell cycle stage: mitosis) [°C] | solubility in G1/S (log2) (HeLa Kyoto [2]) | solubility change mitosis (log2) (HeLa Kyoto [3]) | thermal stability score (HeLa Kyoto [4]; [5]) | thermal stability score (HeLa Kyoto [4]; cell cycle stage: mitosis)
1 | MLSVASRSGPFAPVLSATSRGVAGALRPLVQATVPATPEQPVLDLKRPFLSRESLSGQAVRRPLVASVGLNVPASVCYSHTDIKVPDFSEYRRLEVLDSTKSSRESSEARKGFSYLVTGVTTVGVAYAAKNAVTQFVSSMSASADVLALAKIEIKLSDIPEGKNMAFKWRGKPLFVRHRTQKEIEQEAAVELSQLRDPQHDLDRVKKPEWVILIGVCTHLGCVPIANAGDFGGYYCPCHGSHYDASGRIRLGPAPLNLEVPTYEFTSDDMVIVG [UQCRFS1] | 55.6 | 55.5 | 0.119 | -0.113 | -1.93 | -2.28
2 | DHX9 | 50.5 | 50.5 | -0.671 | 0.211 | 1.02 | 2.63
3 | MEEVPHDCPGADSAQAGRGASCQGCPNQRLCASGAGATPDTAIEEIKEKMKTVKHKILVLSGKGGVGKSTFSAHLAHGLAEDENTQIALLDIDICGPSIPKIMGLEGEQVHQSGSGWSPVYVEDNLGVMSVGFLLSSPDDAVIWRGPKKNGMIKQFLRDVDWGEVDYLIVDTPPGTSDEHLSVVRYLATAHIDGAVIITTPQEVSLQDVRKEINFCRKVKLPIIGVVENMSGFICPKCKKESQIFPPTTGGAELMCQDLEVPLLGRVPLDPLIGKNCDKGQSFFIDAPDSPATLAYRSIIQRIQEFCNLHQSKEENLISS [NUBP1] | 52.4 | 52.7 | 0.398 | 0.00361 | 3.38 | 2.05
4 | MGVEGCTKCIKYLLFVFNFVFWLAGGVILGVALWLRHDPQTTNLLYLELGDKPAPNTFYVGIYILIAVGAVMMFVGFLGCYGAIQESQCLLGTFFTCLVILFACEVAAGIWGFVNKDQIAKDVKQFYDQALQQAVVDDDANNAKAVVKTFHETLDCCGSSTLTALTTSVLKNNLCPSGSNIISNLFKEDCHQKIDDLFSGKLYLIGIAAIVVAVIMIFEMILSMVLCCGIRNSSVY [CD81] | 56.1 | – | 0.0932 | -0.0908 | 0.287 | -0.69
5 | PARP4 | 50.7 | 49.8 | -0.0707 | -0.107 | 1.67 | 0.026
6 | MEESPLSRAPSRGGVNFLNVARTYIPNTKVECHYTLPPGTMPSASDWIGIFKVEAACVRDYHTFVWSSVPESTTDGSPIHTSVQFQASYLPKPGAQLYQFRYVNRQGQVCGQSPPFQFREPRPMDELVTLEEADGGSDILLVVPKATVLQNQLDESQQERNDLMQLKLQLEGQVTELRSRVQELERALATARQEHTELMEQYKGISRSHGEITEERDILSRQQGDHVARILELEDDIQTISEKVLTKEVELDRLRDTVKALTREQEKLLGQLKEVQADKEQSEAELQVAQQENHHLNLDLKEAKSWQEEQSAQAQRLKDKVAQMKDTLGQAQQRVAELEPLKEQLRGAQELAASSQQKATLLGEELASAAAARDRTIAELHRSRLEVAEVNGRLAELGLHLKEEKCQWSKERAGLLQSVEAEKDKILKLSAEILRLEKAVQEERTQNQVFKTELAREKDSSLVQLSESKRELTELRSALRVLQKEKEQLQEEKQELLEYMRKLEARLEKVADEKWNEDATTEDEEAAVGLSCPAALTDSEDESPEDMRLPPYGLCERGDPGSSPAGPREASPLVVISQPAPISPHLSGPAEDSSSDSEAEDEKSVLMAAVQSGGEEANLLLPELGSAFYDMASGFTVGTLSETSTGGPATPTWKECPICKERFPAESDKDALEDHMDGHFFFSTQDPFTFE [CALCOCO1] | 50.2 | 50.3 | 0.13 | -0.128 | 0.0224 | 0.762
7 | MQSWSRVYCSLAKRGHFNRISHGLQGLSAVPLRTYADQPIDADVTVIGSGPGGYVAAIKAAQLGFKTVCIEKNETLGGTCLNVGCIPSKALLNNSHYYHMAHGKDFASRGIEMSEVRLNLDKMMEQKSTAVKALTGGIAHLFKQNKVVHVNGYGKITGKNQVTATKADGGTQVIDTKNILIATGSEVTPFPGITIDEDTIVSSTGALSLKKVPEKMVVIGAGVIGVELGSVWQRLGADVTAVEFLGHVGGVGIDMEISKNFQRILQKQGFKFKLNTKVTGATKKSDGKIDVSIEAASGGKAEVITCDVLLVCIGRRPFTKNLGLEELGIELDPRGRIPVNTRFQTKIPNIYAIGDVVAGPMLAHKAEDEGIICVEGMAGGAVHIDYNCVPSVIYTHPEVAWVGKSEEQLKEEGIEYKVGKFPFAANSRAKTNADTDGMVKILGQKSTDRVLGAHILGPGAGEMVNEAALALEYGASCEDIARVCHAHPTLSEAFREANLAASFGKSINF [DLD] | 58.6 | 56.8 | -0.00434 | -0.0404 | -0.545 | -2.94
